US20200407442A1 (WUXI BIOLOGICS IRELAND, published 2020)

T1: human LAG-3-ECD.D12.mFc mutant P72A (human, UniProt P18627 37-252)
T1 construct: Alanine scanning mutant; construct limits as for m26
T1 chain: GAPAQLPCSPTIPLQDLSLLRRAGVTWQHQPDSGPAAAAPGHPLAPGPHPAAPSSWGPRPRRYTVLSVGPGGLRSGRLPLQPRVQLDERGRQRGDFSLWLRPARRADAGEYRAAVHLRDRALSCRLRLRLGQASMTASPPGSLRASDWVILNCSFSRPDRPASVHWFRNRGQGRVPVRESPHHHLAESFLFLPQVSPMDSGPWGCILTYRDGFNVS

T2: human LAG-3-ECD.D12.mFc mutant A40G (human, UniProt P18627 37-252)
T2 construct: construct limits as for m26
T2 chain: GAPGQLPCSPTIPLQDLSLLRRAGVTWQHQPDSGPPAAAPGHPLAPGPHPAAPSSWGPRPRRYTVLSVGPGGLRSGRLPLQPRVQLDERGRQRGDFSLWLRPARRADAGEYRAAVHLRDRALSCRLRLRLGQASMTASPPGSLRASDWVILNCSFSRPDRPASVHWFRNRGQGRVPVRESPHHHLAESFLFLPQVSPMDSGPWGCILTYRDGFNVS

T3: human LAG-3-ECD.D12.mFc mutant P43A (human, UniProt P18627 37-252)
T3 construct: Alanine scanning mutant; construct limits as for m26
T3 chain: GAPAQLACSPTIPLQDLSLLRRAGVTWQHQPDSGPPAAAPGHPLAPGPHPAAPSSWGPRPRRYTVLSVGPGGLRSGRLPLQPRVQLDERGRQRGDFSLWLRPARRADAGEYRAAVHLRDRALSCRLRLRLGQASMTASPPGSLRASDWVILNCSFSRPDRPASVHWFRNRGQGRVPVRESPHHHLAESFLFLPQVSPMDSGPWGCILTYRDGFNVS

T4: human LAG-3-ECD.D12.mFc mutant T62A (human, UniProt P18627 37-252)
T4 construct: Alanine scanning mutant; construct limits as for m26
T4 chain: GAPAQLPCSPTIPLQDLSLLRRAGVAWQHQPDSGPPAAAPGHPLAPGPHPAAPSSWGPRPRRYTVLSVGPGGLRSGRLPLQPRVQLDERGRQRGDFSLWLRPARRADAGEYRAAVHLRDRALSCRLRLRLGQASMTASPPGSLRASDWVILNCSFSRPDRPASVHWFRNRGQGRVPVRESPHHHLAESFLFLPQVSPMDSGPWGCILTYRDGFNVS

T5: human LAG-3-ECD.D12.mFc mutant G130A (human, UniProt P18627 37-252)
T5 construct: Alanine scanning mutant; construct limits as for m26
T5 chain: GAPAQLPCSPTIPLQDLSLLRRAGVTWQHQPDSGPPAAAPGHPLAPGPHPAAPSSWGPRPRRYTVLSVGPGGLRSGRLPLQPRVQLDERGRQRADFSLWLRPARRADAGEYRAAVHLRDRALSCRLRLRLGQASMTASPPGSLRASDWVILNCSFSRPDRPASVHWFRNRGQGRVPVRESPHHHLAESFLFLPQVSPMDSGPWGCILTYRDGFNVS

T6: human LAG-3-ECD.D12.mFc mutant L136A (human, UniProt P18627 37-252)
T6 construct: Alanine scanning mutant; construct limits as for m26
T6 chain: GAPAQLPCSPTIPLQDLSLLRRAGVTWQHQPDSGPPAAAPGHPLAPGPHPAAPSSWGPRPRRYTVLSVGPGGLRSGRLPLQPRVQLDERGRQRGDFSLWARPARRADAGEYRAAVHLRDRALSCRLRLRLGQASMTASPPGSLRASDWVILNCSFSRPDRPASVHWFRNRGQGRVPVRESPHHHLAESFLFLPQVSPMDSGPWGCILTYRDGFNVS

T7: human LAG-3-ECD.D12.mFc mutant V151A (human, UniProt P18627 37-252)
T7 construct: Alanine scanning mutant; construct limits as for m26
T7 chain: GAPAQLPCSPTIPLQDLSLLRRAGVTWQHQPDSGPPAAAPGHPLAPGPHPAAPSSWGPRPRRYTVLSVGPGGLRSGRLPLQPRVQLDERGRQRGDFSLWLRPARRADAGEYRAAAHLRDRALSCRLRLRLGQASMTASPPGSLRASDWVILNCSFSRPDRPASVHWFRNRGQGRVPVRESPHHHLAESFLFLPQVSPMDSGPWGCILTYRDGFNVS

T8: human LAG-3-ECD.D12.mFc mutant D155A (human, UniProt P18627 37-252)
T8 construct: Alanine scanning mutant; construct limits as for m26
T8 chain: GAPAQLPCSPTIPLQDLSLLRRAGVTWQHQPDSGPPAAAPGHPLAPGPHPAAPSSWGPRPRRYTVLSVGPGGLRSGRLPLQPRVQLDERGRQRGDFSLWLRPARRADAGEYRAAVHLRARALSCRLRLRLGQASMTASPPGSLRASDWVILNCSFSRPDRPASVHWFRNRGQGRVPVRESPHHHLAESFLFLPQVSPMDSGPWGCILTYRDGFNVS


Tests used:
Test in all cases: ELISA, antibody coated, LAG-3 D12.mFc mutant in supernatant, normalised to control mutants
[1] = target: T1, human LAG-3-ECD.D12.mFc mutant P72A
Method in brief: (§1)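 Antibody 1.53.3-uAb-IgG4k or 3.40.19-uAb-hIgG4L coated at 2 μg/mL, then exposed to supernatant containing quantified LAG-3 D12.mFc mutants. Detection with HRP anti-mFc (1:5000). Absorbance normalized to mean of control mutants; binding fold change <0.75 set as epitope cutoff.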

[2] = target: T2, human LAG-3-ECD.D12.mFc mutant A40G
Method in brief: as §1

[3] = target: T3, human LAG-3-ECD.D12.mFc mutant P43A
Method in brief: as §1

[4] = target: T4, human LAG-3-ECD.D12.mFc mutant T62A
Method in brief: as §1

[5] = target: T5, human LAG-3-ECD.D12.mFc mutant G130A
Method in brief: as §1

[6] = target: T6, human LAG-3-ECD.D12.mFc mutant L136A
Method in brief: as §1

[7] = target: T7, human LAG-3-ECD.D12.mFc mutant V151A
Method in brief: as §1

[8] = target: T8, human LAG-3-ECD.D12.mFc mutant D155A
Method in brief: as §1

| Binder | Fold Change [1] | Fold Change [2] | Fold Change [3] | Fold Change [4] | Fold Change [5] | Fold Change [6] | Fold Change [7] | Fold Change [8] |
| --- | --- | --- | --- | --- | --- | --- | --- | --- |
| 1.53.3-uAb-IgG4k (antibody, V domains shown, Fully human antibody from OMT rats; IgG4 kappa by its name) VH: QVQLQQWGAGLLKPSETLSLTCGVYGGSFSGYYWSWIRQPPGMGLEWIGEINHRGNTNYNPSLKSRVTISEDTSKNQFSLRLSSVTAADTAVYFCTRGEDYSDYDYYGDFWGQGTLVTVSS VL: EIVLTQSPATLSLSQGERATLSCRASQSISSYLAWYQQKPGQAPRLLIYAASNRATGIPARFSGSGSGTDFTLTISSLEPEDFAIYYCQQRSNWPLTFGGGTKVEIK | 0.743 |  |  |  |  |  |  |  |
| 3.40.19-uAb-IgG4L (antibody, V domains shown, Fully human antibody from OMT rats; IgG4 lambda by its name; also called 3.40.19-uAb-hIgG4L) VH: QLQLQESGPGLVKPSETLSLTCTVSGDSISSTSYYWGWIRQPPGKGLEWIGSFYYSGSTYYNPSLKSRVTISVDTSKNQFSLKLNSVTAADTAVYYCARMQLWSYDVDVWGQGTTVTVSS VL: QSALTQPASVSGSPGQSITISCTGTSSDVGGYDYVAWYQQHPGKVPKLMIYDVSERPSGVSNRFSGSKSGNTASLTISGLQAEDEADYYCSSYTSTTTLVVFGGGTKLSVL |  | 0.608 | 0.494 | 0.727 | 0.102 | 0.043 | 0.043 | 0.701 |
